{"source": "paper PMC6329520", "about": "“Diversification of DNA binding specificities enabled SREBP transcription regulators to expand the repertoire of cellular functions that they govern in fungi”", "molecules": {"B1": {"name": "non-palindromic site fragment (HMS1 cognate site) (dsDNA)", "DNA 1": "ACAAAAAAAAATCAGGCCATTTGTAATACT", "DNA 2": "AGTATTACAAATGGCCTGATTTTTTTTTGT"}}, "key": {"CaHms1 DBD [1]": {"target": "T1, CaHms1 DBD (Candida albicans, UniProt A0A1D8PMZ4 463-685)", "test": "competition", "conditions": "unlabeled competitor vs labeled N1; at least one order of magnitude; Standard EMSA buffer (composition by reference), 90 min, room temperature, 6% polyacrylamide gel in 0.5x TGE; pH and salt not given"}, "AfSrbA DBD [2]": {"target": "T2, AfSrbA DBD (Aspergillus fumigatus, UniProt Q4WIN1 145-266)", "T2 sequence": "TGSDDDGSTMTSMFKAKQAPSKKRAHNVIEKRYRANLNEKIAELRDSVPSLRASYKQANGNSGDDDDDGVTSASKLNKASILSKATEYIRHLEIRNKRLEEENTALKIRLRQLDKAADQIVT", "test": "competition", "conditions": "unlabeled competitor vs labeled N1; at least one order of magnitude; Standard EMSA buffer (composition by reference), 90 min, room temperature, 6% polyacrylamide gel in 0.5x TGE; pH and salt not given"}, "CaHms1 DBD [3]": {"target": "T1, CaHms1 DBD", "test": "EMSA; 0-100 nM protein; Standard EMSA buffer (composition by reference), 90 min, room temperature, 6% polyacrylamide gel in 0.5x TGE; pH and salt not given", "conditions": "protein: recombinant; tags: N-terminal 6xHis or 6xHis-MBP (primers: pLIC-H3); chain copies: 2; label: 32P"}, "CpHms1 DBD": {"target": "T3, CpHms1 DBD (Candida parapsilosis, UniProt G8B9T4 486-659)", "T3 sequence": "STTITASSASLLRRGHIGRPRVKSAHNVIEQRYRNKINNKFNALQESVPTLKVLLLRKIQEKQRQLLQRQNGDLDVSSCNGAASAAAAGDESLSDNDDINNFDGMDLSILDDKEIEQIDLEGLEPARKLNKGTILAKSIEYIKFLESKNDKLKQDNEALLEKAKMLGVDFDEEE", "test": "EMSA; 0-100 nM protein; Standard EMSA buffer (composition by reference), 90 min, room temperature, 6% polyacrylamide gel in 0.5x TGE; pH and salt not given", "conditions": "protein: recombinant; tags: N-terminal 6xHis or 6xHis-MBP (primers: pbRZ75); chain copies: 2; label: 32P"}, "AfSrbA DBD [4]": {"target": "T2, AfSrbA DBD", "test": "EMSA; 0-100 nM protein; Standard EMSA buffer (composition by reference), 90 min, room temperature, 6% polyacrylamide gel in 0.5x TGE; pH and salt not given", "conditions": "protein: recombinant; tags: N-terminal 6xHis or 6xHis-MBP (primers: pLIC-H3); chain copies: 2; label: 32P"}, "CaCph2 DBD": {"target": "T4, CaCph2 DBD (Candida albicans, UniProt Q59RL7 197-302)", "T4 sequence": "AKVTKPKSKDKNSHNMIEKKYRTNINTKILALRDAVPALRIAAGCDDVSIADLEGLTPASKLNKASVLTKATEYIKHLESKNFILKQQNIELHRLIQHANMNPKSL", "test": "competition; little if any discrimination from N3; Standard EMSA buffer (composition by reference), 90 min, room temperature, 6% polyacrylamide gel in 0.5x TGE; pH and salt not given", "conditions": "protein: recombinant; tags: N-terminal 6xHis or 6xHis-MBP (primers: pLIC-H3); chain copies: 2; label: 32P"}}, "data": [{"molecule": "palindromic canonical E-box fragment", "values": [{"measurement": "binding signal (fold weaker than N1)", "setting": "CaHms1 DBD [1]", "result": "> 10"}, {"measurement": "binding signal (fold weaker than N1)", "setting": "AfSrbA DBD [2]", "result": "> 10"}]}, {"molecule": "B1", "values": [{"measurement": "binding result", "setting": "CaHms1 DBD [3]", "result": "binds"}, {"measurement": "binding result", "setting": "CpHms1 DBD", "result": "binds"}, {"measurement": "binding result", "setting": "AfSrbA DBD [4]", "result": "binds"}, {"measurement": "binding result", "setting": "CaCph2 DBD", "result": "binds"}]}]}
